Measured values: patent US20100196390A1 (RINAT NEUROSCIENCE, published 2010)
Where a chain is given by its changes, count along the chain named.

B1: C2 (Fab, V domains shown)
VH: QVQLVQSGAEVKKPGASVKVSCKASGYTFTNYDIIWVRQAPGQGLEWMGYINPYNDGTKYNEKFKGRVTMTRDTSTSTVYMELSSLRSEDTAVYYCARLLKYRRFRYYAIDYWGQGTTVTVSS
VL: DIQMTQSPSSLSASVGDRVTITCRTSENVYSNLAWYQQKPGKAPKLLIYAASNLQSGVPSRFSGSGSGTDYTFTISSLQPEDIATYYCQHFWGSPFTFGQGTKLEIK
notes: Fab
B2: RN1026A (Fab, V domains shown)
VH: B1 VH with D56R, G57R, T58R, K59E
VL: B1 VL with T25A, Y71F
notes: Fab
B3: 4A6 (Fab, V domains shown)
VH: B1 VH with D56R, G57R, T58R, K59E
VL: B1 VL with R24H, T25A
notes: Fab
B4: 4B12 (Fab, V domains shown)
VH: B1 VH with D56G, G57R, T58R, K59E
VL: B1 VL with T25A, N28P, L33V
notes: Fab
B5: 16-C1 (Fab, V domains shown)
VH: B1 VH with R106K
VL: B1 VL with T25A, Y71F, G93Y, F96W
notes: Fab
B6: 16-D6 (Fab, V domains shown)
VH: B1 VH with R106K
VL: B1 VL with T25A, Q55A, S56D, Y71F, H90D, G93Y
notes: Fab
B7: 16-E4 (Fab, V domains shown)
VH: B1 VH
VL: B1 VL with T25A, Y71F, G93Y, F96W
notes: Fab
B8: A2 (Fab, V domains shown)
VH: B1 VH
VL: B1 VL with T25A, G93Y, F96W
notes: Fab
B9: 16-F4 (Fab, V domains shown)
VH: B1 VH
VL: B1 VL with T25A, Q55A, S56D, Y71F, G93T
notes: Fab
B10: A6-11 (Fab, V domains shown)
VH: B1 VH with D56R, G57R, K59E
VL: B1 VL with R24H, T25A
notes: Fab
B11: T1-HuC1 (Fab, V domains shown)
VH: B1 VH with R106S
VL: B1 VL with T25A, Q55A, S56D, Y71F, G93Y
notes: Fab
B12: 16-C3 (Fab, V domains shown)
VH: B1 VH
VL: B1 VL with T25A, Y71F, H90Q, G93Y
notes: Fab
B13: 16-G9 (Fab, V domains shown)
VH: B1 VH
VL: B1 VL with T25A, Y71F, G93Y, T97G
notes: Fab
B14: A6-10 (Fab, V domains shown)
VH: B1 VH with D56R, T58R, K59E
VL: B1 VL with R24H, T25A
notes: Fab
B15: A6-9 (Fab, V domains shown)
VH: B1 VH with G57R, T58R, K59R
VL: B1 VL with R24H, T25A
notes: Fab
B16: 16-H4 (Fab, V domains shown)
VH: B1 VH
VL: B1 VL with N28S, Y71F, G93A
notes: Fab

molecular target: T1, human TrkB monomer (His ECD) (human, UniProt Q16620 32-430); experiment: Biacore, 25 C
T1 construct: extracellular domain; amine-coupled to the chip
T1 sequence (Q16620 32-430): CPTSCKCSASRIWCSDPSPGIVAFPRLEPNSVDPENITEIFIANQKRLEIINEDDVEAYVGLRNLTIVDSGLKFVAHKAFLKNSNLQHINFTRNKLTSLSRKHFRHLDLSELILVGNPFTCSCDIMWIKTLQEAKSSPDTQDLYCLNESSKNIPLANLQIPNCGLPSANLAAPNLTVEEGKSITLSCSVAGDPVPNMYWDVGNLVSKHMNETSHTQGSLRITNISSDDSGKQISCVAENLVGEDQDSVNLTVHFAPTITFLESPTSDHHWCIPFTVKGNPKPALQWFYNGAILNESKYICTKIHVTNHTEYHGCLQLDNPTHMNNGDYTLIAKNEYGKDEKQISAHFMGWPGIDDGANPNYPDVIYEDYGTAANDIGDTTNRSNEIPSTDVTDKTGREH
In short: (§1)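 Monovalent Fab fragments were tested at 25° C by surface plasmon resonance on a Biacore instrument, against TrkB extracellular-domain monomer amine-coupled to the chip at low capacity. Fabs were injected low to high as a 3-fold serial dilution from 100 nM for 84 sec, with a 10 minute dissociation after the top sample. The dissociation half-life was calculated from koff, which was fitted to a Langmuir binding model in BIAevaluation. The formula used was T1/2 = Log 2/koff.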

T1/2	Binder
2.9 min	B1

molecular target: T1, human TrkB monomer (His ECD); experiment: Biacore, 37 C
In short: as §1, with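 “37°” for “25°”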

T1/2	Binder
4.53 min	B2

molecular target: T2, TrkB (Homo sapiens (Human), UniProt Q16620 32-430); experiment: koff of Fab at 25 C; T1/2=Log2/koff
T2 sequence (Q16620 32-430 limits assumed): as the sequence (Q16620 32-430) above
In short: as §1

T1/2	Binder
13.2 min	B3
12.8 min	B4
2.9 min	B1
6 min	B5
1 min	B6
7 min	B7
6 min	B8
5 min	B9
9.9 min	B10
1.7 min	B11
1 min	B12
4 min	B13
4 min	B14
11.8 min	B15
6 min	B16

molecular target: T2, TrkB; experiment: koff of Fab at 37 C; T1/2=Log2/koff
In short: as §1, with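 “37°” for “25°”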

T1/2	Binder
4.5 min	B2

molecular target: T1, human TrkB monomer (His ECD); experiment: SPR (Biacore), TrkB His ECD monomer on chip, 37 C
Protocol: (§2) TrkB monomers (H is ECD) of human, mouse, and rat were amine-coupled to the chip at levels of 2008, 1008, and 889RU respectively in an effort to give low capacity surfaces suitable for kinetic analysis. Fabs (C1, C2, A2, 4A6, and 4B12) were diluted to 100 nM (according to their labeled concentrations by NanoDrop, using 1AU=0.6 mg/mL) to give the top concentration of a 3 fold serial dilution. Samples were injected from low to high concentration as a titration series for 84 sec, allowing a 10 minute dissociation phase for the 100 nM sample. […] The full-length mouse anti-TrkB antibody 38B8-IgG was used as a (+) control to confirm that the chip was active.
(§3) The concentrations of the Fab proteins are determined by ELISA and/or SDS-PAGE electrophoresis using a Fab of known concentration (as determined by amino acid analysis) as a standard. Kinetic association rates (kₒₙ) and dissociation rates (koff) (generally measured at 25° C. or 37° C.) are obtained simultaneously by fitting the data to a 1:1 Langmuir binding model (Karlsson, R. Roos, H. Fagerstam, L. Petersson, B., 1994 Methods Enzymology 6:99-110) using the BIAevaluation program. Equilibrium dissociation constant (KD) values are calculated as koff/kₒₙ.

Kd	koff	kon	Binder
1.27 nM	0.00255 s⁻¹	2e+06 M⁻¹ s⁻¹	B2
0.17 nM	0.000372 s⁻¹	2.14e+06 M⁻¹ s⁻¹	B3

molecular target: T3, mouse TrkB monomer (His ECD) (mouse, UniProt P15209 32-429); experiment: SPR (Biacore), TrkB His ECD monomer on chip, 37 C
T3 construct: extracellular domain; amine-coupled to the chip
T3 sequence (P15209 32-429): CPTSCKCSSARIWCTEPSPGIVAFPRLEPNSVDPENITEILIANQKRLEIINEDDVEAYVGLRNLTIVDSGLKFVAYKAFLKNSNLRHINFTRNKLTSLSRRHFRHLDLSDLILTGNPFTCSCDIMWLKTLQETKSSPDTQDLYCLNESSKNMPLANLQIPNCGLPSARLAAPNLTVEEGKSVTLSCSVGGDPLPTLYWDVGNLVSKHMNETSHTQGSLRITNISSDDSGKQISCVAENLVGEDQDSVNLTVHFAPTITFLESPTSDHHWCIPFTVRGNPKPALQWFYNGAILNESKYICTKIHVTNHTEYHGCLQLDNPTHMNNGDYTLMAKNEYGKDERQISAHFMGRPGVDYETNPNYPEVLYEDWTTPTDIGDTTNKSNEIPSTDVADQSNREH
Protocol: as §2, §3

Kd	koff	kon	Binder
2.27 nM	0.00396 s⁻¹	1.75e+06 M⁻¹ s⁻¹	B2
0.37 nM	0.00066 s⁻¹	1.76e+06 M⁻¹ s⁻¹	B3

molecular target: T4, rat TrkB monomer (His ECD) (rat, UniProt Q63604 32-429); experiment: SPR (Biacore), TrkB His ECD monomer on chip, 37 C
T4 construct: extracellular domain; amine-coupled to the chip
T4 sequence (Q63604 32-429): as the sequence (P15209 32-429) above, with T3M, S9T, A10T, V32I, R63K, S84G, M153T, L185I, S394T counted along it
Protocol: as §2, §3

Kd	koff	kon	Binder
4 nM	0.00924 s⁻¹	1.41e+06 M⁻¹ s⁻¹	B2
		1.36e+06 M⁻¹ s⁻¹	B3

molecular target: T1, human TrkB monomer (His ECD); experiment: SPR (Biacore), Fab over amine-coupled TrkB His ECD monomer, 25 C
Protocol: as §2, §3

Kd	koff	kon	Binder
0.18 nM	0.000705 s⁻¹	3.89e+06 M⁻¹ s⁻¹	B3
0.21 nM	0.000532 s⁻¹	2.5e+06 M⁻¹ s⁻¹	B4
2.54 nM	0.0014 s⁻¹	552000 M⁻¹ s⁻¹	B1
1.08 nM	0.00145 s⁻¹	1.34e+06 M⁻¹ s⁻¹	B8

molecular target: T3, mouse TrkB monomer (His ECD); experiment: as above
Protocol: as §2, §3

Kd	koff	kon	Binder
0.02 nM	9.24e-05 s⁻¹	4.35e+06 M⁻¹ s⁻¹	B3
0.06 nM	0.000146 s⁻¹	2.38e+06 M⁻¹ s⁻¹	B4
1.44 nM	0.000734 s⁻¹	510000 M⁻¹ s⁻¹	B1
0.51 nM	0.000636 s⁻¹	1.24e+06 M⁻¹ s⁻¹	B8

molecular target: T4, rat TrkB monomer (His ECD); experiment: as above
Protocol: as §2, §3

Kd	koff	kon	Binder
0.27 nM	0.000666 s⁻¹	2.45e+06 M⁻¹ s⁻¹	B3
0.41 nM	0.00081 s⁻¹	1.99e+06 M⁻¹ s⁻¹	B4
2.29 nM	0.00146 s⁻¹	638000 M⁻¹ s⁻¹	B1
1.18 nM	0.00152 s⁻¹	1.29e+06 M⁻¹ s⁻¹	B8
